Substitutions are numbered along the chain they refer to.

B1: IL6R65PMP13A11 (VHH)
VHH: EVQLVESGGGLVQPGGSLRLSCAASGTVFKVNAMAWYRQAPGKGRELVAGVISAGSANYADSVKGRFTISRDNAKNTLYLQMNSLRPEDTAVYYCAFVTTNSDYDLGRDYWGQGTLVTVSS
B2: IL6R65PMP18G8 (VHH)
VHH: B1 VHH with V28T, V31I, A33V, V51I, S53T, A54G, S56T, A57T, N58T
B3: IL6R65PMP13F5 (VHH)
VHH: B1 VHH with V28T, K30R, V31I, A33V, V51I, S53T, A54N, A57T, N58S
B4: IL6R65PMP13D3 (VHH)
VHH: B1 VHH with S25N, V28T, A33V, S53T, A54G, S56T, A57T
B5: IL6R65PMP18G7 (VHH)
VHH: B1 VHH with V28T, A33V, V51I, S53T, A54G, A57T, N58T
B6: IL6R65PMP19A4 (VHH)
VHH: EVQLVESGGGLVQPGGSLRLSCAASGSIFKVNAMGWYRQAPGKGRELVAGIISGGSTNYADSVKGRFTISRDNAKNTLYLQMNSLRPEDTAVYYCAFITTDTNYDLGKRSWGQGTLVTVSS
notes: CDR3 library clone
B7: IL6R65PMP13B3 (VHH)
VHH: B1 VHH with R19H, V28I, V31I, A33V, G50A, V51I, S53T, A54D, A57T, N58T
B8: IL6R65PMP19H2 (VHH)
VHH: B6 VHH with T100A, N103D, S110Y
notes: CDR3 library clone
B9: IL6R65PMP13B2 (VHH)
VHH: B1 VHH with V28T, A33I, G50A, V51I, S53T, A54N, A57T, N58T
B10: IL6R65PMP18G12 (VHH)
VHH: EVQLVESGGGLVQPGGSLRLSCAASGSIFKINVMAWYRQAPGKGRELVAAIINSGTTSYADSVKGRFTISRDNAKNTLYLQMNSLRPEDTAVYYCAFVTTNSDYDLGRDYWGQGTLVTVSS
B11: IL6R65PMP16H6 (VHH)
VHH: B1 VHH with T27S, K30R, V31I, V51F, I52V, S53T, A54G, A57S
B12: IL6R65PMP13F3 (VHH)
VHH: B10 VHH with S27T, I28T, N53T, S54G, S58T
B13: IL6R65PMP18B1 (VHH)
VHH: B6 VHH with T100A, N103D, S110Y
notes: CDR3 library clone
B14: IL6R65PMP13G5 (VHH)
VHH: B10 VHH with S27T, V33I, T56S
B15: IL6R65PMP19H7 (VHH)
VHH: B6 VHH with T100A, N103E, S110F
notes: CDR3 library clone
B16: IL6R65PMP18E11 (VHH)
VHH: B10 VHH with S27T, I28T, K30R, A50G, N53T, S54N, T56S
B17: IL6R65PMP18G11 (VHH)
VHH: B10 VHH with S54G
B18: IL6R65PMP13D2 (VHH)
VHH: B10 VHH with S27T, I28T, I31V, S54D, T56S, S58T
B19: IL6R65PMP13H4 (VHH)
VHH: B1 VHH with T27S, V28A, A33V, S53T, A54D, A57T
B20: IL6R65PMP13F10 (VHH)
VHH: B1 VHH with T27S, V31I, A35G, V51L, A57T

The experiment addresses T1, human IL6R (human, UniProt P08887 20-358, limits assumed).
T1 construct: Antigen of the Biacore experiments
T1 sequence (looked up): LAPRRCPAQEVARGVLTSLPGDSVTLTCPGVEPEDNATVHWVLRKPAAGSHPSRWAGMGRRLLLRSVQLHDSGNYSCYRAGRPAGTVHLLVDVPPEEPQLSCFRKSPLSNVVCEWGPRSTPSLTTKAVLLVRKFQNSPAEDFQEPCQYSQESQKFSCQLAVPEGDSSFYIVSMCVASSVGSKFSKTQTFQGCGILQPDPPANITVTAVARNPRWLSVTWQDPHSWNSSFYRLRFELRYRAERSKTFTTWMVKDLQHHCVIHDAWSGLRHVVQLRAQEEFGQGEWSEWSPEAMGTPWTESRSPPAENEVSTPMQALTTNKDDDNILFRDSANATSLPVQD
The experiment is described as follows: SPR (Biacore), periplasmic extract. As for the experimental part:
Selection outputs were analyzed by picking individual colonies and growing them overnight in 1 ml 2×YT (Yeast Tryptone) medium+100 ug/ml Carbenicillin at 37 C. Nanobody containing periplasmic extracts were prepared, diluted 1/10 in PBS and subsequently tested for antigen binding in ELISA. Clones with the highest ELISA signals were sequenced and analyzed on Biacore. […] The off-rate of the best clone from the CDR3 library was 7×10e-4 s-1.
(In general: Surface plasmon resonance follows binding to a sensor surface in real time, without labels.)
By koff is commonly meant the rate constant with which the complex falls apart. Lower therefore signals slow dissociation. Take B1: the koff was found to be 0.00083 s⁻¹.

B2: the koff was 0.00023 s⁻¹.

Molecule B3 gave a koff of 0.00037 s⁻¹.

B4 returned a koff of 0.00048 s⁻¹.

Molecule B5 registered a koff of 0.0003 s⁻¹.

Molecule B6 yielded a koff of 0.00089 s⁻¹.

Consider B7, for which the koff was 0.00076 s⁻¹.

Regarding B8, the koff was 0.00074 s⁻¹.

In turn, B9 gave a koff of 0.0014 s⁻¹.

Regarding B10, the koff was 0.00034 s⁻¹.

In turn, B11 came in with a koff of 0.00032 s⁻¹.

With B12, the koff is 0.00046 s⁻¹.

The molecule B13 had an off-rate (koff) of 0.00072 s⁻¹.

With B14, the koff turned out to be 0.00069 s⁻¹.

B15 yielded a koff of 0.0011 s⁻¹.

Consider B16, for which the koff turned out to be 0.00027 s⁻¹.

In the case of B17, the koff came out at 0.00033 s⁻¹.

B18 gave a koff of 0.0011 s⁻¹.

As to B19, the koff is 0.00052 s⁻¹.

B20: the koff was 0.0011 s⁻¹.

The values are drawn from patent US20100292083A1 (Ablynx, published 2010).
